{"source": "patent US20180055925A1", "about": "(UNITED STATES OF AMERICA AS REPRESENTED BY THE SECRETARY …, published 2018)", "binders": {"B1": {"name": "SpoVM (synthesized 26 amino acid peptide, adsorbed on spherical supported lipid bilayers) (peptide)", "peptide": "MKFYTIKLPKFLGGIVRAMLGSFRKD", "notes": "also called SpoVM peptide; SpoVM-coated SSLBs"}}, "molecular_target": "T1, SpoIVA^AF488 (His6-tagged cysteine-less SpoIVA variant, C98S, with a single engineered N-terminal cysteine, … (Bacillus subtilis, UniProt P35149 1-492, Alexa Fluor 488 C5-maleimide on the single engineered cysteine at the N-terminus (second residue)))", "T1 construct": "SpoIVA polymerizes in the presence of ATP; also called SpoIVA^A488", "T1 sequence": "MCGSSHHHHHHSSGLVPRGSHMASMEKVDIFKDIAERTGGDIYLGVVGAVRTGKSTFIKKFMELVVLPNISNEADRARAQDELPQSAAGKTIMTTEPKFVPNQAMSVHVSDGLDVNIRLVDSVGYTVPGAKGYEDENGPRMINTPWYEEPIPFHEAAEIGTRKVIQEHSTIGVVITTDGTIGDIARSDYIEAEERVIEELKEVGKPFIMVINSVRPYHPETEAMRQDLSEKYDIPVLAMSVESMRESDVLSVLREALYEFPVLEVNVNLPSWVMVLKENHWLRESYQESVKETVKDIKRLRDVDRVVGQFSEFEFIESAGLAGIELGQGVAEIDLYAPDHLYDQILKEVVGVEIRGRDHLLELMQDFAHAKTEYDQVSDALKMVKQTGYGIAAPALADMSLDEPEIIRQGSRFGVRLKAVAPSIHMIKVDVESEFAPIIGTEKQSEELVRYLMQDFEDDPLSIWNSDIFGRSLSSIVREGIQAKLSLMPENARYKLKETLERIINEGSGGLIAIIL", "test": "fluorescence microscopy of SpoVM-coated SSLBs incubated with increasing SpoIVA^AF488", "procedure": "SpoVM-coated SSLBs were collected by centrifugation at 13,000×g for 1 minute, and then were incubated with varying concentrations of SpoIVA^AF488 in a final volume of 100 μL buffer A containing 10 mM MgCl₂ and 4 mM ATP, overnight at room temperature with gentle inversion. SSHEL particles were collected by centrifugation and resuspended in 100 μL buffer A for microscopy. For competition assays, SpoVM-SSLBs were incubated with 0.006 μM SpoIVA^A488 in the presence or absence of 4 mM ATP in buffer A containing 10 mM MgCl₂. The fluorescent SSLBs were collected by centrifugation, and resuspended with 100 μL buffer A containing 5 μM unlabeled SpoIVA. 5 μL aliquots were taken at indicated time points for microscopy.\nTo test this model of basement layer assembly in vitro, spherical supported lipid bilayers (SSLBs) were constructed by coating 2 μm-diameter silica beads with a phospholipid bilayer (Bayerl and Bloom, Biophys J 58, 357-362 (1990) and Gopalakrishnan and Rouiller, Langmuir 25, 5455-5458 (2009)) to mimic the surface of the forespore. […] The SpoVM-coated SSLBs were then incubated with increasing concentrations of SpoIVA^AF488 and measured its adsorption using fluorescence microscopy (FIG. 1C). […] At higher concentrations of SpoIVA^AF488 the heterogeneity in fluorescence between SSLBs was reduced and SpoIVA^AF488 adsorption approached saturation (FIG. 1C, 1E)."}
{"binder": "B1", "values": [{"measurement": "binding result", "result": "binds"}]}
